Reference: US20260308224A1, “METHODS AND COMPOSITIONS FOR DISPLAYING PEPTIDE LIBRARIES” (priority 2023, published 2026)

Experiments:
HsDOR = details: previously tested in yeast (Uddin et al. 2016); cited from earlier work
KOR = target: T1, KOR (Homo sapiens, UniProt P41145); assay: tethered peptide library sorting on GFP fluorescence with NGS; assay type: cell-based; details: metric: positive count
T1 construct: Gpa1 with human Gi3 C-terminal five residues; tethered peptide display
From the text: (§1) The first, henceforth referred to as library 1, site saturated the first four positions of the peptide, YGGF, using an NNK mutagenesis strategy (FIG. 5). This is canonically the “message” region, understood to be integral to opioid receptor signaling, with the tyrosine being particularly important. […] In creating this library, it was hoped that it could be determined how much variation is tolerated in this region, and how this might differ for opioid receptor sub-type.
(§2) The second library, library 2, saturated the latter four residues of the peptide, LRRI (FIG. 5). This “address” region is thought to confer receptor specificity, interacting with receptor residues further up the binding pocket (Metzger et al. 2001; Xue et al. 1994; Marie-Pepin et al. 1997), but can still be important for receptor activity. It was hypothesized that more variation would be tolerated in this region, including more sub-type specific variation.
(§3) Libraries were sorted twice on GFP fluorescence. Roughly 15 times the theoretical nucleotide complexity was sorted to ensure rare variants were assayed. […] After the second sorts, the genomes of the positive and negative populations were prepped and the library cassettes were sequenced in technical replicate using NGS at a depth of at least 1 million reads.
(§4) Several strategies were used to both identify unique binders for receptor sub-type and identify generally preferred residues and motifs. Log proportions between the positive and negative pools were determined with a filter of-11 (FIG. 6). […] Because the libraries were sorted twice, and the fraction of cells with a GFP signal small, strong signalers were expected to be present in relatively high numbers in the positive pool.
(§5) To incorporate both metrics, log proportions after a cut off of 500 nucleotide read counts were also determined (FIGS. 7 and 8).
(§6) Beyond identification of general motif trends, variants unique to individual receptors were determined. For a general idea of variant specificity, plots showing receptor specificity by the log proportion metric were generated (FIGS. 12 and 13). […] Logo plots of receptor-unique variants by this metric are highlighted in FIGS. 14 and 15. To account for the noise around potentially low count variants, log proportions between positive and negative pools were determined after filtering on a minimum variant read count of 500 in the positive and negative pools. Variants that were receptor unique by this metric are highlighted in the logo plots in FIGS. 16 and 17.
(§7) Peptide candidates for further analysis were determined by manually curating the three discussed methods (Table 1).
(§8) For cell sorting experiments, post-transformation outgrowths were grown overnight in SD-URA/His pH 5.8 media, and cultures were passaged the following day 1:25 to minimize dead and untransformed cells. The following day the saturated cultures were washed three times in SD-URA/His pH 7.1 100 mM MOPS media without a carbon source to minimize glucose carry-over. Cultures were then diluted 1:10 their initial volume in SD-URA/His pH. 7.1 100 mM MOPS 2% galactose 0.2% glucose media and grown for 24 hours. Cells were then resuspended in an equal volume of TE pH 8.0 and 14-15 million events were sorted using a SH800S Cell Sorter (Sony) on GFP fluorescence, gated for singlets. Cells were sorted into SD-His/URA pH 5.8 media with pen/strep and grown for two days post sorting. Cultures were again washed and induced with galactose and sorted via the same parameters into positive and negative pools and grown up for 2 days. Genome extractions were performed using a Zymo Yeast Star kit.

DOR [1] = target: T2, DOR (Homo sapiens, UniProt P41143); assay: tethered peptide agonist display, GFP reporter signaling in yeast; assay type: cell-based; details: individually cloned tethered isolates (FIG. 27)
T2 construct: Gpa1 with human Gi3 C-terminal five residues; tethered peptide display
T2 sequence (P41143 whole entry): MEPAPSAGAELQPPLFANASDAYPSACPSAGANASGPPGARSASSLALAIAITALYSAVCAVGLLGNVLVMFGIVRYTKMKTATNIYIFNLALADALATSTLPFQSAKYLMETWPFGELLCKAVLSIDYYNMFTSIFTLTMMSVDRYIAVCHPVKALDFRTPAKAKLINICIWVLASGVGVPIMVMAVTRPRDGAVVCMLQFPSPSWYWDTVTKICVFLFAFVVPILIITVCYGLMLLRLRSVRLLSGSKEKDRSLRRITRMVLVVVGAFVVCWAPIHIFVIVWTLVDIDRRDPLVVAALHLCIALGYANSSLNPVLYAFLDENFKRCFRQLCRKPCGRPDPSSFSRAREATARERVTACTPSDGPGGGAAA
Experimental: (§9) Anchoring with Flo42 at both the N- and C-termini of the peptides was tried. Additionally, versions with and without a glycine-serine linker between the peptide and the Flo42 region were assayed (versions with linker, FIG. 19). To enable rapid screening, the tethered peptide cassette was expressed on a plasmid under the control of a constitutive promoter.
Expression was driven by a galactose-inducible promoter, pGal1, and the construct was integrated into the yeast genome. The inducible promoter was used to control the length of peptide expression and minimize potential for unwanted selection from long-term constitutive expression. Like the tethered peptide cassette, receptors were integrated into the genome to avoid downstream issues with variable plasmid copy number and sorting (Bean et al. 2022).
Plasmids were constructed using Golden Gate assembly of components from the Yeast Toolkit with some adaptations. Receptors were expressed on either 2μ URA3 backbones driven by the CCW12 promoter or integrated into the yeast genome using a URA3 auxotrophic marker and driven by the TDH3 promoter. Tethered peptide cassettes were expressed on either a Cen6 HIS3 backbone or integrated into the yeast genome using HIS3 auxotrophic markers and were driven by pHHF2 for plasmid-based expression, and pGal1 for integrated expression. Oligos were ordered as gblocks or single stranded DNA from IDT.

DOR [2] = target: T2, DOR; assay: tethered peptide library sorting on GFP fluorescence with NGS; assay type: cell-based; details: metric: positive count
From the text: as §1, §2, §3, §4, §5, §6, §7, §8

MOR = target: T3, MOR (Homo sapiens, UniProt P35372); assay: as above; assay type: cell-based; details: metric: positive count
T3 construct: Gpa1/Gi3 chimeric G alpha; exogenous or tethered peptides
T3 sequence (P35372 whole entry): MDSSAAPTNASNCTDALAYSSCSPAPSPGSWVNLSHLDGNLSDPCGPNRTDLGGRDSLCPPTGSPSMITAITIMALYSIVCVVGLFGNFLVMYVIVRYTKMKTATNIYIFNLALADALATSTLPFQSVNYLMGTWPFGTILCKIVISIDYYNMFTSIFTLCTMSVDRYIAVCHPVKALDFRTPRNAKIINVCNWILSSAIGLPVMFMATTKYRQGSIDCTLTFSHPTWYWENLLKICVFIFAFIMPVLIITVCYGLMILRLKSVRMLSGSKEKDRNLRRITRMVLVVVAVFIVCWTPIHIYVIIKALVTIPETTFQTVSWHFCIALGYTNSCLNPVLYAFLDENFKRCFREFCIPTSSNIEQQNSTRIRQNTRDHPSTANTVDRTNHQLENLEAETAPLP
From the text: as §1, §2, §3, §4, §5, §6, §7, §8

human opioid receptors = assay: tethered peptide orientations and controls, GFP reporter signaling in yeast; assay type: cell-based; details: pGal1, integrated; FIG. 20 (cholesterol-producing strain CJM263)
Experimental: as §9, with “Due to the limited application and efficacy of activating human GPCRs via this strategy, several tethering orientations for the dynorphin peptides were attempted. Anchoring” for “Anchoring”
This optimized tethering orientation was then assayed in the context to be used for library peptide display. Expression was driven by a galactose-inducible promoter, pGal1, and the construct was integrated into the yeast genome. The inducible promoter was used to control the length of peptide expression and minimize potential for unwanted selection from long-term constitutive expression. Like the tethered peptide cassette, receptors were integrated into the genome to avoid downstream issues with variable plasmid copy number and sorting (Bean et al. 2022). […] It was decided to screen MOR with the peptide libraries to determine if there were any variations that could rescue function, with the hypothesis that the sequence space assayed would likely contain variants capable of activating the receptor. […]

T1 sequence (P41145 whole entry): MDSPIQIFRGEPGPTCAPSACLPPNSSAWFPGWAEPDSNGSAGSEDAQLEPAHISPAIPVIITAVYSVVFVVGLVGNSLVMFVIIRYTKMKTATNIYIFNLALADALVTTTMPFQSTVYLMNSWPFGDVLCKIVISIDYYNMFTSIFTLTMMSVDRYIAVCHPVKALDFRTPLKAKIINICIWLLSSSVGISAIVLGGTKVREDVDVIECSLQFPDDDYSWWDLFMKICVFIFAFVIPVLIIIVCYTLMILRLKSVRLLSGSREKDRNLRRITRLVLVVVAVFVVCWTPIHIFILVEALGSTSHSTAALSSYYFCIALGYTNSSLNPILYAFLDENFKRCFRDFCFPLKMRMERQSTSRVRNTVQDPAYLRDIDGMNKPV

Substance: dynorphin A 1-17
- activity (HsDOR): showed activity

Substance: SVPFLRRI
- top-performing motif unique for receptor (KOR; library 1): KOR

Substance: YGFDLLRI
- receptor specificity of individually cloned isolates (DOR [1]): delta-specific
- signaling of individually cloned isolates (DOR [1]): signaled strongly

Substance: SHYVLRRI
- top-performing motif unique for receptor (KOR; library 1): KOR

Substance: WWPDLRRI
- top-performing motif unique for receptor (DOR [2]; library 1): DOR

Substance: CDIQLRRI
- top-performing motif unique for receptor (KOR; library 1): KOR

Substance: GLVNLRRI
- top-performing motif unique for receptor (MOR; library 1): MOR

Substance: YGGFMNYP
- top-performing motif unique for receptor (MOR; library 2): MOR

Substance: YGMELRRI
- receptor specificity of individually cloned isolates (DOR [1]): delta-specific
- signaling of individually cloned isolates (DOR [1]): signaled strongly
- top-performing motif unique for receptor (DOR [2]; library 1): DOR

Substance: YGFDLRRI
- top-performing motif unique for receptor (DOR [2]; library 1): DOR

Substance: YQRFLRRI
- top-performing motif unique for receptor (KOR; library 1): KOR

Substance: YGGFMVAT
- top-performing motif unique for receptor (MOR; library 2): MOR

Substance: YGGFSSRG
- top-performing motif unique for receptor (DOR [2]; library 2): DOR

Substance: YGGFGGSG
- top-performing motif unique for receptor (DOR [2]; library 2): DOR

Substance: YGGFYRLR
- top-performing motif unique for receptor (KOR; library 2): KOR

Substance: YGGFRCCA
- top-performing motif unique for receptor (MOR; library 2): MOR

Substance: YGGFGSGR
- top-performing motif unique for receptor (DOR [2]; library 2): DOR

Substance: YGGFYSRW
- top-performing motif unique for receptor (KOR; library 2): KOR

Substance: GGGSGGGGSGGGSGGGGS [glycine-serine linker, glycine-serine linker, without peptide agonist, negative control]
- activity of negative controls (human opioid receptors): no activity

Substance: YGGFMGSV
- top-performing motif unique for receptor (MOR; library 2): MOR

Substance: SAWPLRRI
- top-performing motif unique for receptor (KOR; library 1): KOR

Substance: LVLLLRRI
- top-performing motif unique for receptor (MOR; library 1): MOR

Substance: YGGFSSGL
- top-performing motif unique for receptor (DOR [2]; library 2): DOR

Substance: YGGFYSYA
- top-performing motif unique for receptor (KOR; library 2): KOR

Substance: YGGFSSSG
- top-performing motif unique for receptor (DOR [2]; library 2): DOR
